Usually Ki stands for the equilibrium dissociation constant of an inhibitor or competing ligand from its target. Lower therefore signals higher affinity.

This assay concerns the target T1, human GH secretagogue receptor (human, UniProt Q92847 1-366).
T1 construct: whole, on cells; the Ca2+ assay used the whole cells; also called hGHS-R; ghrelin receptor
Put plainly: radioligand competition, (125I)ghrelin on membranes of CHO-K1 cells expressing hGHS-R. As to the method: Membranes for radioligand binding studies can be and were prepared by homogenization of the foregoing CHO-K1 cells expressing the human recombinant GHS receptor in about 20 ml of ice-cold 50 mM Tris-HCl with a Brinkman Polytron® (Brinkman®, Westbury, N.Y., U.S.A.) at setting 6 for about 15 seconds. The homogenates were washed twice by centrifugation (39,000 g/10 minutes) and the final pellets were resuspended in about 50 mM Tris-HCl containing 2.5 mM MgCl₂ and 0.1% bovine serum albumin (BSA). For the selected assay, aliquots of approximately 0.4 ml were incubated with 0.05 nM (¹²⁵I)ghrelin (˜2000 Ci/mmol; Perkin Elmer Life Sciences@, Boston, Mass., U.S.A.) with and without 0.05 ml of unlabeled competing test peptide. After approximately 60 minutes at 4° C., the bound (¹²⁵I)ghrelin was separated from the free ghrelin by rapid filtration through GF/C filters (available from Brandel®, Gaithersburg, Md., U.S.A.) which were pre-soaked in 0.5% polyethyleneimine/0.1% BSA. The filters were then washed 3 times with 5-ml aliquots of ice-cold 50 mM Tris-HCl and 0.1% BSA. The bound radioactivity trapped on the filters was counted by gamma spectrometry (using a spectrometer from Wallace LKB®, Gaithersburg, Md., U.S.A.). Specific binding was determined by subtracting (¹²⁵I)ghrelin bound in the presence of 1000 nM ghrelin (available from Bachem®, Torrence, Calif., U.S.A.) from the total (¹²⁵I)ghrelin bound.
A selection of the preferred embodiments was tested using the receptor binding assay discussed above and the results are reported in Table 2 presented below.
A general note: Displacement assays read how much labelled ligand stays bound in the presence of the test substance.

*1 amine or outer side, *2 acyl side, *3 side chain or, on linkers, in order; H or OH if unused. Where no end group is shown, it is not given here. [ ]: non-standard residue; d: D form. The star is where a group is joined. Glu(NH-hexyl) = N5-hexyl-L-glutamine, CCCCCCNC(=O)CC[C@H](N[*:1])C(=O)[*:2]; Biotin = O=C1N[C@H]2[C@H](CS[C@H]2CCCCC(=O)*)N1; Myristoyl = CCCCCCCCCCCCCC(=O)*; Octanoyl = CCCCCCCC(=O)*; Aib = CC(C)(N)C(=O)O

T1 sequence (Q92847 whole entry): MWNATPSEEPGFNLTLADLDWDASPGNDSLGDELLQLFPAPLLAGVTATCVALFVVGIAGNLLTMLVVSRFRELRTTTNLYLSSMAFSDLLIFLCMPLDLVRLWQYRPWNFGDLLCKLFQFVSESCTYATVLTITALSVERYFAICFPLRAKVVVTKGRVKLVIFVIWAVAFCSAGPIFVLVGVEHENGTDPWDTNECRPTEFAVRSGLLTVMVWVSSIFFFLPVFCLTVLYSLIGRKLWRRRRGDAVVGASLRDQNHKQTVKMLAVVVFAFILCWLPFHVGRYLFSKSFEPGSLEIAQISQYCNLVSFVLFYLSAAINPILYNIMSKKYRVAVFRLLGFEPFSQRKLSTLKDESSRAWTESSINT

B1: (Aib^2,8,Ser^3,Glu(NH-hexyl)^17)hGhrelin(1-28)-NH2 (peptide)
peptide: GXSFLSPXHQRVQQRKESKKPPAKLQPR
modifications: Aib at 2 and 8; Ser at 3 (plain, not acylated); Glu(NH-hexyl) at 17; C-terminal amide
notes: Synthetic ghrelin analog; calculated MW 3280.91 (fits an unacylated Ser 3), found 3281.60; also called #219
Molecule B1 came in with a Ki of 214 nM.

B2: (Lys(biotinyl)^17)hGhrelin(1-28)-NH2 (peptide)
peptide: GSS(Octanoyl)FLSPEHQRVQQRKK(Biotin)SKKPPAKLQPR-NH2
modifications: N-terminus assumed
SMILES: CCCCCCCC(=O)OC[C@H](NC(=O)[C@H](CO)NC(=O)CN)C(=O)N[C@@H](Cc1ccccc1)C(=O)N[C@@H](CC(C)C)C(=O)N[C@@H](CO)C(=O)N1CCC[C@H]1C(=O)N[C@@H](CCC(=O)O)C(=O)N[C@@H](Cc1c[nH]cn1)C(=O)N[C@@H](CCC(N)=O)C(=O)N[C@@H](CCCNC(=N)N)C(=O)N[C@H](C(=O)N[C@@H](CCC(N)=O)C(=O)N[C@@H](CCC(N)=O)C(=O)N[C@@H](CCCNC(=N)N)C(=O)N[C@@H](CCCCN)C(=O)N[C@@H](CCCCNC(=O)CCCC[C@@H]1SC[C@@H]2NC(=O)N[C@@H]21)C(=O)N[C@@H](CO)C(=O)N[C@@H](CCCCN)C(=O)N[C@@H](CCCCN)C(=O)N1CCC[C@H]1C(=O)N1CCC[C@H]1C(=O)N[C@@H](C)C(=O)N[C@@H](CCCCN)C(=O)N[C@@H](CC(C)C)C(=O)N[C@@H](CCC(N)=O)C(=O)N1CCC[C@H]1C(=O)N[C@@H](CCCNC(=N)N)C(N)=O)C(C)C
notes: Synthetic ghrelin analog; calculated MW 3595.27, found 3594.90; also called #78
Turning to B2, the affinity, expressed as Ki, was 0.07 nM.

B3: (Aib^2,10,Glu(NH-hexyl)^3,17)hGhrelin(1-28)-NH2 (peptide)
peptide: G[Aib][Glu(NH-hexyl)]FLSPEH[Aib]RVQQRK[Glu(NH-hexyl)]SKKPPAKLQPR-NH2
modifications: N-terminus assumed
SMILES: CCCCCCNC(=O)CC[C@H](NC(=O)[C@H](CCCCN)NC(=O)[C@H](CCCNC(=N)N)NC(=O)[C@H](CCC(N)=O)NC(=O)[C@H](CCC(N)=O)NC(=O)[C@@H](NC(=O)[C@H](CCCNC(=N)N)NC(=O)C(C)(C)NC(=O)[C@H](Cc1c[nH]cn1)NC(=O)[C@H](CCC(=O)O)NC(=O)[C@@H]1CCCN1C(=O)[C@H](CO)NC(=O)[C@H](CC(C)C)NC(=O)[C@H](Cc1ccccc1)NC(=O)[C@H](CCC(=O)NCCCCCC)NC(=O)C(C)(C)NC(=O)CN)C(C)C)C(=O)N[C@@H](CO)C(=O)N[C@@H](CCCCN)C(=O)N[C@@H](CCCCN)C(=O)N1CCC[C@H]1C(=O)N1CCC[C@H]1C(=O)N[C@@H](C)C(=O)N[C@@H](CCCCN)C(=O)N[C@@H](CC(C)C)C(=O)N[C@@H](CCC(N)=O)C(=O)N1CCC[C@H]1C(=O)N[C@@H](CCCNC(=N)N)C(N)=O
notes: Synthetic ghrelin analog; calculated MW 3407.10, found 3407.20; also called #58
With B3, the inhibition constant Ki came to 0.4 nM.

B4: (Ac-Gly^1,Aib^2,Glu(NH-hexyl)^3,17)hGhrelin(1-28)-NH2 (peptide)
peptide: GXEFLSPEHQRVQQRKESKKPPAKLQPR
modifications: N-terminal acetyl (Ac-Gly at 1); Aib at 2; Glu(NH-hexyl) at 3 and 17; C-terminal amide
notes: Synthetic ghrelin analog; calculated MW 3492.17, found 3492.00
Take B4: the Ki came out at 1.68 nM.

B5: (Aib^2,Lys(myristyl)^17)hGhrelin(1-28)-NH2 (peptide)
peptide: G[Aib]S(Octanoyl)FLSPEHQRVQQRKK(Myristoyl)SKKPPAKLQPR-NH2
modifications: N-terminus assumed
SMILES: CCCCCCCCCCCCCC(=O)NCCCC[C@H](NC(=O)[C@H](CCCCN)NC(=O)[C@H](CCCNC(=N)N)NC(=O)[C@H](CCC(N)=O)NC(=O)[C@H](CCC(N)=O)NC(=O)[C@@H](NC(=O)[C@H](CCCNC(=N)N)NC(=O)[C@H](CCC(N)=O)NC(=O)[C@H](Cc1c[nH]cn1)NC(=O)[C@H](CCC(=O)O)NC(=O)[C@@H]1CCCN1C(=O)[C@H](CO)NC(=O)[C@H](CC(C)C)NC(=O)[C@H](Cc1ccccc1)NC(=O)[C@H](COC(=O)CCCCCCC)NC(=O)C(C)(C)NC(=O)CN)C(C)C)C(=O)N[C@@H](CO)C(=O)N[C@@H](CCCCN)C(=O)N[C@@H](CCCCN)C(=O)N1CCC[C@H]1C(=O)N1CCC[C@H]1C(=O)N[C@@H](C)C(=O)N[C@@H](CCCCN)C(=O)N[C@@H](CC(C)C)C(=O)N[C@@H](CCC(N)=O)C(=O)N1CCC[C@H]1C(=O)N[C@@H](CCCNC(=N)N)C(N)=O
notes: Synthetic ghrelin analog; calculated MW 3577.35, found 3577.2; also called #217
Molecule B5 returned a Ki of 0.16 nM.

B6: (Ac-Gly^1,Aib^2,8,Glu(NH-hexyl)^3,17)hGhrelin(1-28)-NH2 (peptide)
peptide: GXEFLSPXHQRVQQRKESKKPPAKLQPR
modifications: N-terminal acetyl (Ac-Gly at 1); Aib at 2 and 8; Glu(NH-hexyl) at 3 and 17; C-terminal amide
notes: Synthetic ghrelin analog; calculated MW 3448.16, found 3447.98
B6 displayed a Ki of 2.94 nM.

B7: (Aib^1,2,10,Glu(NH-hexyl)^3,17)hGhrelin(1-28)-NH2 (peptide)
peptide: [Aib][Aib][Glu(NH-hexyl)]FLSPEH[Aib]RVQQRK[Glu(NH-hexyl)]SKKPPAKLQPR-NH2
modifications: N-terminus assumed
SMILES: CCCCCCNC(=O)CC[C@H](NC(=O)[C@H](CCCCN)NC(=O)[C@H](CCCNC(=N)N)NC(=O)[C@H](CCC(N)=O)NC(=O)[C@H](CCC(N)=O)NC(=O)[C@@H](NC(=O)[C@H](CCCNC(=N)N)NC(=O)C(C)(C)NC(=O)[C@H](Cc1c[nH]cn1)NC(=O)[C@H](CCC(=O)O)NC(=O)[C@@H]1CCCN1C(=O)[C@H](CO)NC(=O)[C@H](CC(C)C)NC(=O)[C@H](Cc1ccccc1)NC(=O)[C@H](CCC(=O)NCCCCCC)NC(=O)C(C)(C)NC(=O)C(C)(C)N)C(C)C)C(=O)N[C@@H](CO)C(=O)N[C@@H](CCCCN)C(=O)N[C@@H](CCCCN)C(=O)N1CCC[C@H]1C(=O)N1CCC[C@H]1C(=O)N[C@@H](C)C(=O)N[C@@H](CCCCN)C(=O)N[C@@H](CC(C)C)C(=O)N[C@@H](CCC(N)=O)C(=O)N1CCC[C@H]1C(=O)N[C@@H](CCCNC(=N)N)C(N)=O
notes: Synthetic ghrelin analog; calculated MW 3435.16, found 3435.00; also called #70
For the molecule B7, the Ki worked out at 0.63 nM.

B8: (Ac-Aib^1,Aib^2,10,Glu(NH-hexyl)^3,17)hGhrelin(1-28)-NH2 (peptide)
peptide: Ac-[Aib][Aib][Glu(NH-hexyl)]FLSPEH[Aib]RVQQRK[Glu(NH-hexyl)]SKKPPAKLQPR-NH2
SMILES: CCCCCCNC(=O)CC[C@H](NC(=O)[C@H](CCCCN)NC(=O)[C@H](CCCNC(=N)N)NC(=O)[C@H](CCC(N)=O)NC(=O)[C@H](CCC(N)=O)NC(=O)[C@@H](NC(=O)[C@H](CCCNC(=N)N)NC(=O)C(C)(C)NC(=O)[C@H](Cc1c[nH]cn1)NC(=O)[C@H](CCC(=O)O)NC(=O)[C@@H]1CCCN1C(=O)[C@H](CO)NC(=O)[C@H](CC(C)C)NC(=O)[C@H](Cc1ccccc1)NC(=O)[C@H](CCC(=O)NCCCCCC)NC(=O)C(C)(C)NC(=O)C(C)(C)NC(C)=O)C(C)C)C(=O)N[C@@H](CO)C(=O)N[C@@H](CCCCN)C(=O)N[C@@H](CCCCN)C(=O)N1CCC[C@H]1C(=O)N1CCC[C@H]1C(=O)N[C@@H](C)C(=O)N[C@@H](CCCCN)C(=O)N[C@@H](CC(C)C)C(=O)N[C@@H](CCC(N)=O)C(=O)N1CCC[C@H]1C(=O)N[C@@H](CCCNC(=N)N)C(N)=O
notes: Synthetic ghrelin analog; calculated MW 3477.19, found 3477.40; also called #158
B8 gave a Ki of 24.4 nM.

B9: (Ac-Gly^1,Aib^2,10,Glu(NH-hexyl)^3,17)hGhrelin(1-28)-NH2 (peptide)
peptide: Ac-G[Aib][Glu(NH-hexyl)]FLSPEH[Aib]RVQQRK[Glu(NH-hexyl)]SKKPPAKLQPR-NH2
SMILES: CCCCCCNC(=O)CC[C@H](NC(=O)[C@H](CCCCN)NC(=O)[C@H](CCCNC(=N)N)NC(=O)[C@H](CCC(N)=O)NC(=O)[C@H](CCC(N)=O)NC(=O)[C@@H](NC(=O)[C@H](CCCNC(=N)N)NC(=O)C(C)(C)NC(=O)[C@H](Cc1c[nH]cn1)NC(=O)[C@H](CCC(=O)O)NC(=O)[C@@H]1CCCN1C(=O)[C@H](CO)NC(=O)[C@H](CC(C)C)NC(=O)[C@H](Cc1ccccc1)NC(=O)[C@H](CCC(=O)NCCCCCC)NC(=O)C(C)(C)NC(=O)CNC(C)=O)C(C)C)C(=O)N[C@@H](CO)C(=O)N[C@@H](CCCCN)C(=O)N[C@@H](CCCCN)C(=O)N1CCC[C@H]1C(=O)N1CCC[C@H]1C(=O)N[C@@H](C)C(=O)N[C@@H](CCCCN)C(=O)N[C@@H](CC(C)C)C(=O)N[C@@H](CCC(N)=O)C(=O)N1CCC[C@H]1C(=O)N[C@@H](CCCNC(=N)N)C(N)=O
notes: Synthetic ghrelin analog; calculated MW 3449.14, found 3449.20; also called #146
Consider B9, for which the affinity, expressed as Ki, was 0.99 nM.

B10: (Ac-Gly^1,Aib^2,10,Glu(NH-hexyl)^3,Lys(biotinyl)^17)hGhrelin(1-28)-NH2 (peptide)
peptide: Ac-G[Aib][Glu(NH-hexyl)]FLSPEH[Aib]RVQQRKK(Biotin)SKKPPAKLQPR-NH2
SMILES: CCCCCCNC(=O)CC[C@H](NC(=O)C(C)(C)NC(=O)CNC(C)=O)C(=O)N[C@@H](Cc1ccccc1)C(=O)N[C@@H](CC(C)C)C(=O)N[C@@H](CO)C(=O)N1CCC[C@H]1C(=O)N[C@@H](CCC(=O)O)C(=O)N[C@@H](Cc1c[nH]cn1)C(=O)NC(C)(C)C(=O)N[C@@H](CCCNC(=N)N)C(=O)N[C@H](C(=O)N[C@@H](CCC(N)=O)C(=O)N[C@@H](CCC(N)=O)C(=O)N[C@@H](CCCNC(=N)N)C(=O)N[C@@H](CCCCN)C(=O)N[C@@H](CCCCNC(=O)CCCC[C@@H]1SC[C@@H]2NC(=O)N[C@@H]21)C(=O)N[C@@H](CO)C(=O)N[C@@H](CCCCN)C(=O)N[C@@H](CCCCN)C(=O)N1CCC[C@H]1C(=O)N1CCC[C@H]1C(=O)N[C@@H](C)C(=O)N[C@@H](CCCCN)C(=O)N[C@@H](CC(C)C)C(=O)N[C@@H](CCC(N)=O)C(=O)N1CCC[C@H]1C(=O)N[C@@H](CCCNC(=N)N)C(N)=O)C(C)C
notes: Synthetic ghrelin analog; calculated MW 3591.32, found 3591.50; also called #166
In the case of B10, the Ki was found to be 1.28 nM.

These data come from patent US20090156483A1 (IPSEN PHARMA S A S, published 2009).
